Measurements from US20030049729.

T1: human fibrinogen fragments, P02671
T1 chain 1: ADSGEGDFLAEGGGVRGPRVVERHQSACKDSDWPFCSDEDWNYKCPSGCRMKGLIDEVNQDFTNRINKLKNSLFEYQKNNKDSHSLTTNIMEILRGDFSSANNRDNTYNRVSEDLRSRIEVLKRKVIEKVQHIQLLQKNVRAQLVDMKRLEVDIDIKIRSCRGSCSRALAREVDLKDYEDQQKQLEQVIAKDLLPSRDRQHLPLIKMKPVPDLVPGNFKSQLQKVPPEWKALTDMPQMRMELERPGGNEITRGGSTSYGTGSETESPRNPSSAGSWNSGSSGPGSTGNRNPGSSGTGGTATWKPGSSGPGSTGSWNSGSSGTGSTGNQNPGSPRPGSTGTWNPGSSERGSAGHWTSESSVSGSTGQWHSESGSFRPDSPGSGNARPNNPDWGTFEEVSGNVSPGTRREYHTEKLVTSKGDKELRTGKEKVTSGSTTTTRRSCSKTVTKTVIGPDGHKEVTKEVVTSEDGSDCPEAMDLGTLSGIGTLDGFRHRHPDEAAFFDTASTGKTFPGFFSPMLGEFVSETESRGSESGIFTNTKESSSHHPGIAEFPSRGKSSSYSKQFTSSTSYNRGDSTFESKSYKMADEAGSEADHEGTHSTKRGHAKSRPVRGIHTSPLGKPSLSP
T1 chain 2: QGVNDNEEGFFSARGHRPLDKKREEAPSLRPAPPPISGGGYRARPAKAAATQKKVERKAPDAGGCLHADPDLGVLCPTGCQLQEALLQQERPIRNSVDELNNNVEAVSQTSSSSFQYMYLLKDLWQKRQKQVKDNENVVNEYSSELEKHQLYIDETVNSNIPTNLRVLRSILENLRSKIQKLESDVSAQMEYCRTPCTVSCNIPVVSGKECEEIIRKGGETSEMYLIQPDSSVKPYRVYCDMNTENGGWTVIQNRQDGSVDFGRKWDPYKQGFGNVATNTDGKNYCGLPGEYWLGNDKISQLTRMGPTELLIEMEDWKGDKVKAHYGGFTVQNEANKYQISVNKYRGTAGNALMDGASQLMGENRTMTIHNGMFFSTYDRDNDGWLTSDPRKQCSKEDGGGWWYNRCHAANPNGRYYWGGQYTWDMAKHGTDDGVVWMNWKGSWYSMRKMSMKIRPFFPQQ
T1 chain 3: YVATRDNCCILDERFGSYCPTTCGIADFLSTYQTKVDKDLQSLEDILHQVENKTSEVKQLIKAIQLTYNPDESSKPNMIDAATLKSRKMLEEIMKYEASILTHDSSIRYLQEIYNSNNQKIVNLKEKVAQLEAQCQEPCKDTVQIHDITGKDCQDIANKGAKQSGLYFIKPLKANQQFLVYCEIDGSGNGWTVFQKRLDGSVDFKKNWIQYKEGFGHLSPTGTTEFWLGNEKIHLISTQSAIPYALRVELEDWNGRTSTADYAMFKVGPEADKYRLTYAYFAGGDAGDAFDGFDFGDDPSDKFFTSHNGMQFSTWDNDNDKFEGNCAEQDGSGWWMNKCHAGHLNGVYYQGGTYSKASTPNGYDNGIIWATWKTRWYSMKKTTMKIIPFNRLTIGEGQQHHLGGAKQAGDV

B1: recombinant-K2S (r-K2S), kringle 2 plus serine protease portion of tPA, expressed in non-gpIII fusion form in XM[K2S] (protein)
chain: SEGNSDCYFGNGSAYRGTHSLTESGASCLPWNSMILIGKVYTAQNPSAQALGLGKHNYCRNPDGDAKPWCHVLKNRRLTWEYCDVPSCSTCGLRQYSQPQFRIKGGLFADIASHPWQAAIFAKHRRSPGERFLCGGILISSCWILSAAHCFQERFPPHHLTVILGRTYRVVPGEEEQKFEVEKYIVHKEFDDDTYDNDIALLQLKSDSSRCAQESSVVRTVCLPPADLQLPDWTECELSGYGKHEALSPFYSERLKEAHVRLYPSSRCTSQHLLNRTVTDNMLCAGDTRSGGPQANLHDACQGDSGGPLVCLNDGRMTLVGIISWGLGCGQKDVPGVYTKVTNYLDWIRDNMRP
B2: standard melanoma tPA 86/670 (protein)
chain: SYQVICRDEKTQMIYQQHQSWLRPVLRSNRVEYCWCNSGRAQCHSVPVKSCSEPRCFNGGTCQQALYFSDFVCQCPEGFAGKCCEIDTRATCYEDQGISYRGTWSTAESGAECTNWNSSALAQKPYSGRRPDAIRLGLGNHNYCRNPDRDSKPWCYVFKAGKYSSEFCSTPACSEGNSDCYFGNGSAYRGTHSLTESGASCLPWNSMILIGKVYTAQNPSAQALGLGKHNYCRNPDGDAKPWCHVLKNRRLTWEYCDVPSCSTCGLRQYSQPQFRIKGGLFADIASHPWQAAIFAKHRRSPGERFLCGGILISSCWILSAAHCFQERFPPHHLTVILGRTYRVVPGEEEQKFEVEKYIVHKEFDDDTYDNDIALLQLKSDSSRCAQESSVVRTVCLPPADLQLPDWTECELSGYGKHEALSPFYSERLKEAHVRLYPSSRCTSQHLLNRTVTDNMLCAGDTRSGGPQANLHDACQGDSGGPLVCLNDGRMTLVGIISWGLGCGQKDVPGVYTKVTNYLDWIRDNMRP

What was measured:
[1] = target: T1, human fibrinogen fragments, P02671

plasminogen, sequence (P00747 20-810): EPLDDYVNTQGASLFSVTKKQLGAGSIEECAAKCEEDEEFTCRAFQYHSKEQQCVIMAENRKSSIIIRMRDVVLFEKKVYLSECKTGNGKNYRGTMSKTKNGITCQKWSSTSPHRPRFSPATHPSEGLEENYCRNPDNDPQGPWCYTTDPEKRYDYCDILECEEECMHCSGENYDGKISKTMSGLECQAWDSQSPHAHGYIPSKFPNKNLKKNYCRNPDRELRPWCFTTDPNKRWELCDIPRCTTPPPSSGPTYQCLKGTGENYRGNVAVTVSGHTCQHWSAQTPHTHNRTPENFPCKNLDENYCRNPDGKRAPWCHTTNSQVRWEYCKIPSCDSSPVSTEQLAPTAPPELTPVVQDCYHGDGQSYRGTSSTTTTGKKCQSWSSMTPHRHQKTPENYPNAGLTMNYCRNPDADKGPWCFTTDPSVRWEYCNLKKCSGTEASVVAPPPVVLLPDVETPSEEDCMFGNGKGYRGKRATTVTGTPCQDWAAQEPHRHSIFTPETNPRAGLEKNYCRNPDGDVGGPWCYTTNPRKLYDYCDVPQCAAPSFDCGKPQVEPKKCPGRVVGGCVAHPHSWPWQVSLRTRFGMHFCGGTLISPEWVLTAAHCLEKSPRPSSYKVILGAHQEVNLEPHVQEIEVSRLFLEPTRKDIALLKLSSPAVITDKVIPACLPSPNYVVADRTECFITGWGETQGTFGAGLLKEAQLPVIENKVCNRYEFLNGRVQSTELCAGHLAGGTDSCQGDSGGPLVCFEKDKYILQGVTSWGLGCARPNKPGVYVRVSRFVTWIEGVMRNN

Row | Protein | enzymatic activity without fibrinogen [1] | copolymerized plasminogen polyacrylamide gel electrophoresis (plasminogen) | fibrinogen-dependent enzymatic activity (culture supernatant r-K2S) (plasminogen) [IU/ml] | fibrinogen-dependent enzymatic activity (periplasmic r-K2S) (plasminogen)
1 | B1 | Without fibrinogen no enzymatic activity of the r-K2S purified from culture supernatant was observed | Transparent areas of serine protease digested plasminogen were observed only in the ammonium sulfate precipitated culture supernatants of XM[K2S] at 34 and 37 kDa postions | 7 | notably low enzymatic activity, which was below the sensitivity of the test (0.25 IU/ml)
2 | B2 | standard melanoma tPA showed some activity | The positive control lane of standard melanoma tPA also demonstrated enzymatic activity at 66 and 72 kDa positions |  | 
